Two molecules from article PMC11018115, “The EIN3 transcription factor GmEIL1 improves soybean resistance to Phytophthora sojae” can be followed below.

The data set has as its target T1, GmEIL1 (Glycine max (cv. Suinong 10), UniProt A0A0R4J4Z8 1-610).
T1 sequence: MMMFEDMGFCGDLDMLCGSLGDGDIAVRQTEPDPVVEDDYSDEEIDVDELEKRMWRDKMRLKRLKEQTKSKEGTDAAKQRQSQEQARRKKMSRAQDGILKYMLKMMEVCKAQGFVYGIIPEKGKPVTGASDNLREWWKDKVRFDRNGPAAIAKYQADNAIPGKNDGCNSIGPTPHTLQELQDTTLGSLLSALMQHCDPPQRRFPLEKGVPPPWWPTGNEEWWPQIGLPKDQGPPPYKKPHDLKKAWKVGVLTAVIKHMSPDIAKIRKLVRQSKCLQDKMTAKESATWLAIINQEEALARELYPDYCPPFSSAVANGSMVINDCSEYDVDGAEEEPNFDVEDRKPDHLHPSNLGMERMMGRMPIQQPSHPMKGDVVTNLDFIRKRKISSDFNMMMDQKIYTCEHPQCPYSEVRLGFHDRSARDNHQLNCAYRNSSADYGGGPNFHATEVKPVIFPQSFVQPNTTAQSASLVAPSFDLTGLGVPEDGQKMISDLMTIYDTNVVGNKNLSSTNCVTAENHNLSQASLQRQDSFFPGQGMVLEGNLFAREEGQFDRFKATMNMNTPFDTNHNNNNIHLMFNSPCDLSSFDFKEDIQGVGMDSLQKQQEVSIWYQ
Briefly: EMSA; EMSA after Garner and Revzin (1981), chemiluminescent detection; buffer, salt, pH and temperature not stated. The settings on record: protein: recombinant; chain copies: 2; label: digoxigenin-ddUTP (Methods, legend); text also says biotin.

B1: EBS probe (dsDNA)
DNA 1: GTTGTTTGGGATTCAAGGGGCATGTATCTTGAATCC
DNA 2: GGATTCAAGATACATGCCCCTTGAATCCCAAACAAC
As to B1, the binding result was “binds”.

B2: mEBS probe (dsDNA)
DNA 1: GTTGTTTGGGATTCAAGGGGCCCCCCTCTTGAATCC
DNA 2: GGATTCAAGAGGGGGGCCCCTTGAATCCCAAACAAC
As for B2, the binding result is given as “no binding”.
